{"source": "paper PMC9880813", "about": "(Genomics, Proteomics & Bioinformatics, 2021)", "binders": {"B1": {"name": "YN157-bJun (domain or fragment, UniProt P05412 257-318, looked up)", "chain": "RKRMRNRIAASKCRKRKLERIARLEEKVKTLKAQNSELASTANMLREQVAQLKQKVMNHVNS"}}, "key": {"YC157-bFos": {"molecular_target": "YC157-bFos (UniProt P01100 118-210)", "sequence (P01100 118-210)": "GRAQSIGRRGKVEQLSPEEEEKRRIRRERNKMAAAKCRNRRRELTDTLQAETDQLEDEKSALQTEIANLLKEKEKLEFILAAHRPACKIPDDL", "assay": "split reporter (BiFC, NanoBiT)", "conditions": "partners not purified"}, "YC157-ΔbFos": {"molecular_target": "YC157-ΔbFos", "assay": "split reporter (BiFC, NanoBiT)"}}}
{"binder": "B1", "values": [{"measurement": "percentage of fluorescent cells, fold over the negative group (YN157-bJun + YC157-ΔbFos)", "setting": "YC157-bFos", "result": 7, "unit": "fold"}, {"measurement": "signal-to-noise ratio of all cells (against YN157-bJun + YC157-ΔbFos)", "setting": "YC157-bFos", "result": 33, "unit": "ratio"}, {"measurement": "signal-to-noise ratio of fluorescent cells (against YN157-bJun + YC157-ΔbFos)", "setting": "YC157-bFos", "result": 4, "unit": "ratio"}, {"measurement": "fluorescence-positive cell ratio", "setting": "YC157-ΔbFos", "result": 0.5, "unit": "%"}]}
